The record followed here is the supplement of paper PMC10567573.

B1: SPOPL (parent)
chain: PDDKLTLFCEVSVVQDSVNISGHT
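Further: lentivirally expressed fusions sorted by FACS into six bins by GFP to DsRed ratio, PSI derived from sequencing read proportions per bin multiplied by bin number.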

The data set covers variants of B1. Kind of data set: protein stability index of a GFP-peptide fusion (GPS, HEK-293T) (PSI 1-6); higher = more stable. The settings on record: c terminus: a fixed tail appended.
For the variant PTDKLTLFCEVSVVQDSVNISGHT [D2T], the protein stability index came to 1.38.
Under PCDKLTLFCEVSVVQDSVNISGHT [D2C] stands 1.62; under PNDKLTLFCEVSVVQDSVNISGHT [D2N], 1.44.
Take PWDKLTLFCEVSVVQDSVNISGHT [D2W]: the protein stability index amounted to 3.07.
To PADKLTLFCEVSVVQDSVNISGHT [D2A] belongs 1.61; to PVDKLTLFCEVSVVQDSVNISGHT [D2V], 3.9; to PSDKLTLFCEVSVVQDSVNISGHT [D2S], 1.74.
Regarding PKDKLTLFCEVSVVQDSVNISGHT [D2K], the protein stability index came out at 2.02.
To PRDKLTLFCEVSVVQDSVNISGHT [D2R] belongs 2.53; to PYDKLTLFCEVSVVQDSVNISGHT [D2Y], 1.38.
As for PGDKLTLFCEVSVVQDSVNISGHT [D2G], the protein stability index was 2.44.
To PQDKLTLFCEVSVVQDSVNISGHT [D2Q] belongs 3.11.
Take PEDKLTLFCEVSVVQDSVNISGHT [D2E]: the protein stability index is 2.29.
As for PLDKLTLFCEVSVVQDSVNISGHT [D2L], the protein stability index came out at 1.46.
Under PPDKLTLFCEVSVVQDSVNISGHT [D2P] stands 2.71.
To PFDKLTLFCEVSVVQDSVNISGHT [D2F] belongs 1.5; to PHDKLTLFCEVSVVQDSVNISGHT [D2H], 2.04.
To PIDKLTLFCEVSVVQDSVNISGHT [D2I] belongs 2.02; to PMDKLTLFCEVSVVQDSVNISGHT [D2M], 1.61; to VDDKLTLFCEVSVVQDSVNISGHT [P1V], 1.36.
As to SDDKLTLFCEVSVVQDSVNISGHT [P1S], the protein stability index amounted to 2.05.
To TDDKLTLFCEVSVVQDSVNISGHT [P1T] belongs 2; to YDDKLTLFCEVSVVQDSVNISGHT [P1Y], 1.69.
To WDDKLTLFCEVSVVQDSVNISGHT [P1W] belongs 2.11; to PDDKLKLFCEVSVVQDSVNISGHT [T6K], 3.34; to PDDKLCLFCEVSVVQDSVNISGHT [T6C], 1.81.
Under PDDKLGLFCEVSVVQDSVNISGHT [T6G] stands 3.19; under PDDKLMLFCEVSVVQDSVNISGHT [T6M], 1.79.
Take PDDKLPLFCEVSVVQDSVNISGHT [T6P]: the protein stability index was determined as 3.47.
Under PDDKLALFCEVSVVQDSVNISGHT [T6A] stands 2.15; under PDDKLELFCEVSVVQDSVNISGHT [T6E], 2.33.
To PDDKLNLFCEVSVVQDSVNISGHT [T6N] belongs 2.96.
Under PDDKLDLFCEVSVVQDSVNISGHT [T6D] stands 2.84.
Take PDDKLLLFCEVSVVQDSVNISGHT [T6L]: the protein stability index was found to be 1.73.
To PDDKLRLFCEVSVVQDSVNISGHT [T6R] belongs 2.02; to PDDKLFLFCEVSVVQDSVNISGHT [T6F], 2.98.
Under PDDKLQLFCEVSVVQDSVNISGHT [T6Q] stands 2.58; under PDDKLHLFCEVSVVQDSVNISGHT [T6H], 2.4; under PDDKLILFCEVSVVQDSVNISGHT [T6I], 1.8.
Under PDDALTLFCEVSVVQDSVNISGHT [K4A] stands 1.89; under PDDCLTLFCEVSVVQDSVNISGHT [K4C], 1.56; under PDDRLTLFCEVSVVQDSVNISGHT [K4R], 1.79.
Consider PDDMLTLFCEVSVVQDSVNISGHT [K4M], for which the protein stability index was determined as 1.58.
Turning to PDDNLTLFCEVSVVQDSVNISGHT [K4N], the protein stability index came to 1.98.
To PDDTLTLFCEVSVVQDSVNISGHT [K4T] belongs 1.53; to PDDSLTLFCEVSVVQDSVNISGHT [K4S], 2.23; to PDDILTLFCEVSVVQDSVNISGHT [K4I], 1.48.
Under PDDHLTLFCEVSVVQDSVNISGHT [K4H] stands 1.95; under PDDYLTLFCEVSVVQDSVNISGHT [K4Y], 2.26; under PDDPLTLFCEVSVVQDSVNISGHT [K4P], 2.27.
Under PDDQLTLFCEVSVVQDSVNISGHT [K4Q] stands 2.16; under PDDGLTLFCEVSVVQDSVNISGHT [K4G], 2.12.
In the case of PDDELTLFCEVSVVQDSVNISGHT [K4E], the protein stability index is 2.32.
To PDDDLTLFCEVSVVQDSVNISGHT [K4D] belongs 2.81.
To PDDLLTLFCEVSVVQDSVNISGHT [K4L] belongs 2.39; to PDDFLTLFCEVSVVQDSVNISGHT [K4F], 2.19; to PDDKKTLFCEVSVVQDSVNISGHT [L5K], 3.82.
To PDDKPTLFCEVSVVQDSVNISGHT [L5P] belongs 4.1; to PDDKTTLFCEVSVVQDSVNISGHT [L5T], 3.33; to PDDKMTLFCEVSVVQDSVNISGHT [L5M], 2.21.
Regarding PDDKDTLFCEVSVVQDSVNISGHT [L5D], the protein stability index came out at 4.41.
Under PDDKYTLFCEVSVVQDSVNISGHT [L5Y] stands 2.28; under PDDKITLFCEVSVVQDSVNISGHT [L5I], 1.88.
To PDDKSTLFCEVSVVQDSVNISGHT [L5S] belongs 3.63; to PDDKRTLFCEVSVVQDSVNISGHT [L5R], 3.85; to PDDKWTLFCEVSVVQDSVNISGHT [L5W], 1.26.
To PDDKATLFCEVSVVQDSVNISGHT [L5A] belongs 3.66; to PDDKHTLFCEVSVVQDSVNISGHT [L5H], 3.96; to PDDKNTLFCEVSVVQDSVNISGHT [L5N], 3.95.
For the variant PDDKQTLFCEVSVVQDSVNISGHT [L5Q], the protein stability index was determined as 3.73.
Turning to PDDKCTLFCEVSVVQDSVNISGHT [L5C], the protein stability index came to 2.88.
To PDDKETLFCEVSVVQDSVNISGHT [L5E] belongs 3.9; to PDDKGTLFCEVSVVQDSVNISGHT [L5G], 3.07; to PDDKFTLFCEVSVVQDSVNISGHT [L5F], 1.52.
To PDDKVTLFCEVSVVQDSVNISGHT [L5V] belongs 1.81; to PDQKLTLFCEVSVVQDSVNISGHT [D3Q], 1.95.
To PDAKLTLFCEVSVVQDSVNISGHT [D3A] belongs 2.06; to PDPKLTLFCEVSVVQDSVNISGHT [D3P], 2.5; to PDHKLTLFCEVSVVQDSVNISGHT [D3H], 1.47.
Regarding PDWKLTLFCEVSVVQDSVNISGHT [D3W], the protein stability index was 1.73.
To PDLKLTLFCEVSVVQDSVNISGHT [D3L] belongs 2.11.
To PDNKLTLFCEVSVVQDSVNISGHT [D3N] belongs 2.44; to PDKKLTLFCEVSVVQDSVNISGHT [D3K], 1.83; to PDMKLTLFCEVSVVQDSVNISGHT [D3M], 1.93.
Under PDIKLTLFCEVSVVQDSVNISGHT [D3I] stands 2.06.
For the variant PDTKLTLFCEVSVVQDSVNISGHT [D3T], the protein stability index was 1.51.
Under PDRKLTLFCEVSVVQDSVNISGHT [D3R] stands 2.05; under PDSKLTLFCEVSVVQDSVNISGHT [D3S], 1.79; under PDGKLTLFCEVSVVQDSVNISGHT [D3G], 2.43.
Under PDVKLTLFCEVSVVQDSVNISGHT [D3V] stands 1.8; under PDFKLTLFCEVSVVQDSVNISGHT [D3F], 1.87; under PDCKLTLFCEVSVVQDSVNISGHT [D3C], 1.75.
Regarding PDEKLTLFCEVSVVQDSVNISGHT [D3E], the protein stability index is 2.2.
To PDYKLTLFCEVSVVQDSVNISGHT [D3Y] belongs 1.97.
